{"source": "patent US20260116991A1", "about": "(HAINAN SIMCERE ZAIMING PHARMACEUTICAL, published 2026)", "key": {"[1]": {"target": "T1, human GPC3-His protein (human, UniProt P51654 25-559)", "T1 construct": "Bought protein; also called human GPC3 protein; not shown: His tag", "test": "ELISA, coated human GPC3, antibody 100 nM;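 also: antibodies bound to antigen-coated 96-well plates (1 µg/mL), 2 h at 37 °C, detected with HRP-labelled secondary antibody and TMB substrate, absorbance read at 450 nm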"}, "[2]": {"target": "T1, human GPC3-His protein", "test": "ELISA, coated human GPC3, antibody 10 nM;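 also: plate coated with antigen at 1 µg/mL, antibodies bound 2 h at 37 °C, detected via HRP-conjugated secondary antibody and TMB substrate, absorbance read after acid stop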", "experimental": "(§1) The specific method is described as follows: The antigen protein was diluted with PBS to a final concentration of 1 μg/mL, and the diluent was added to a 96-well ELISA plate at 50 μL/well. The plate was sealed with a plastic film and incubated at 4° C. overnight, washed twice with PBS the next day, and a blocking solution [PBS+2% (w/w) BSA] was added for blocking at room temperature for 2 h. […] After incubation at 37° C. for 2 h, the plate was washed 3 times with PBS. A horseradish peroxidase (HRP)-labeled secondary antibody (purchased from Merck, Cat. No. AP113P) was added for incubation at 37° C. for 1 h, and the plate was washed 5 times with PBS. A TMB substrate was added at 50 μL/well for incubation at room temperature for 10 min, then a stop solution (1.0M HCl) was added at 50 μL/well. An ELISA plate reader (Multimode Plate Reader, EnSight, purchased from Perkin Elmer) was used to read OD_{450 nm} values, with results as shown in Table 4 to Table 6, FIG. 1A, FIG. 1B, and FIG. 1C."}, "[3]": {"target": "T1, human GPC3-His protein", "test": "ELISA, coated human GPC3, antibody 0.001 nM"}, "[4]": {"target": "T1, human GPC3-His protein", "test": "ELISA, coated human GPC3, antibody 0.1 nM;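 also: antigen coated on 96-well plates at 1 µg/mL, antibody bound 2 h at 37 °C, detected with HRP-labeled secondary antibody and TMB substrate, acid-stopped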", "experimental": "as §1"}, "[5]": {"target": "T1, human GPC3-His protein", "test": "ELISA, coated human GPC3, antibody 1 nM;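 also: antigen coated at 1 µg/mL on 96-well plates, antibody bound for 2 h at 37 °C, detected with HRP-labeled secondary antibody and TMB, absorbance read at 450 nm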", "experimental": "as §1"}, "[6]": {"target": "T1, human GPC3-His protein", "test": "ELISA, coated human GPC3, antibody 0.01 nM;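 also: Plate-bound antigen coated at 1 µg/mL, antibody incubated 2 h at 37 °C, binding detected by HRP-conjugated secondary antibody with TMB substrate, read as absorbance at 450 nm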", "experimental": "as §1"}, "[7]": {"target": "T2, GPC3 endogenously expressed on HepG2 cells (UniProt P51654 25-554)", "T2 construct": "whole, on cells", "test": "FACS on HepG2 cells;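 also: flow cytometric binding of chimeric antibodies to cells, read as mean fluorescence intensity, EC50 obtained by curve fitting of the MFI data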"}, "[8]": {"target": "T3, human GPC3 on CHO-K1-human GPC3 cells (clone CHOK1-hGPC3.2B5) (human, UniProt P51654 25-554)", "T3 construct": "whole, on cells; Stably transfected CHO-K1 clone 2B5", "test": "FACS on CHOK1-hGPC3.2B5 cells;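 also: flow cytometry binding of chimeric antibodies to the cells, read out as mean fluorescence intensity, with the half-maximal concentration derived by curve fitting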", "experimental": "The desired cells were expanded to a logarithmic growth phase in a T-75 cell culture flask, the medium was removed by pipetting, and the cells were washed twice with a PBS buffer, and digested with trypsin. Then a complete medium was added to stop the digestion, and the cells were blown into a single cell suspension. After counting, the cells were centrifuged, and the cell pellet was resuspended with an FACS buffer (PBS+2% fetal bovine serum) to 2×10⁶ cells/mL. The cell resuspension solution was added to a 96-well FACS reaction plate at 50 μl/well, and a chimeric antibody sample to be tested was added at 50 μl/well for incubation at 4° C. for 1 h. […] After the plate was centrifuged and washed 3 times with a PBS buffer, 100 μl of the resulting solution was assayed and analyzed by FACS (FACS Canto™, purchased from BD Biosciences). Data analysis was performed by software (FlowJo) to obtain the mean fluorescence intensity (MFI) of the cells. Then, analysis was performed by software (GraphPad Prism8), data were fitted, and EC₅₀ values were calculated."}, "[9]": {"target": "T1, human GPC3-His protein", "test": "ELISA, coated human GPC3, antibody 0.0001 nM"}, "[10]": {"target": "T4, human GPC3-His protein (human, UniProt P51654 25-559, limits assumed)", "T4 construct": "also called human GPC3 protein; not shown: His tag", "test": "SPR, antibody captured on Protein A chip, human GPC3-His injected, 1:1 Langmuir model;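 also: flow cell at 25 °C, antigen injected for 240 s at five twofold dilutions starting at 200 nM, dissociation followed up to 600 s, double-referenced sensorgrams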"}, "[11]": {"target": "T5, monkey GPC3 on HEK293T-monkey GPC3 cells (monkey)", "T5 construct": "whole, on cells", "test": "FACS on HEK293T-monkey GPC3 cells"}}, "data": [{"binder": "F1.57.21 human-murine chimeric antibody (antibody, human IgG1, kappa, V domains shown) VH: QVQLQQSGAELARPGASVKLSCKASGYTFTSYGISWVKQITGQGLEWIGEIYPRSESTYYNEKFKGKATLTADKSSSTAYMELRSLTSEDSAVYFCARDYGNIYSFAYWGQGTLVTVSA VL: DIQMTQSPASLSASVGETVTITCRTSENIYSYLAWYQQKQGKSPQLLVYNAKTLAEGVPSRFSGSGSGTQFSLKINSLQPEDFGSYYCQHHYGTPLTFGAGTKLELKR", "values": [{"measurement": "OD450 nm", "setting": "[1]", "result": 2.35, "unit": "OD450"}, {"measurement": "OD450 nm", "setting": "[2]", "result": 2.02, "unit": "OD450"}, {"measurement": "OD450 nm", "setting": "[3]", "result": 0.11, "unit": "OD450"}, {"measurement": "OD450 nm", "setting": "[4]", "result": 0.8, "unit": "OD450"}, {"measurement": "OD450 nm", "setting": "[5]", "result": 1.5, "unit": "OD450"}, {"measurement": "OD450 nm", "setting": "[6]", "result": 0.21, "unit": "OD450"}, {"measurement": "EC50", "setting": "[7]", "result": 0.71, "unit": "nM"}, {"measurement": "Max MFI", "setting": "[7]", "result": 1650, "unit": "MFI"}, {"measurement": "EC50", "setting": "[8]", "result": 1.36, "unit": "nM"}, {"measurement": "Max MFI", "setting": "[8]", "result": 9360, "unit": "MFI"}, {"measurement": "OD450 nm", "setting": "[9]", "result": 0.08, "unit": "OD450"}]}, {"binder": "F1.21.8 human-murine chimeric antibody (antibody, human IgG1, kappa, V domains shown) VH: EVQLQQSGPELVKPGASVKISCKTSGFLFTGHYMHWVKSSHGNILDWIGYIYPYNAISFYNQKFKGKATLTVDKSSNTAYMELRSLTSEDSAVYYCARGDYGNYVTAYWGQGTLVTVSA VL: DVLMTQTPLSLPVSLGDQASISCRSSQSIVHSSGNTYLEWYLQKPGQSPKLLIYKVSNRFSGVPDRFSGSGSGTDFTLKISRVEAEDLGVYYCFQGSHLPWTFGGGTKLDIKR", "values": [{"measurement": "OD450 nm", "setting": "[1]", "result": 2, "unit": "OD450"}, {"measurement": "OD450 nm", "setting": "[2]", "result": 1.7, "unit": "OD450"}, {"measurement": "OD450 nm", "setting": "[3]", "result": 0.12, "unit": "OD450"}, {"measurement": "OD450 nm", "setting": "[4]", "result": 0.9, "unit": "OD450"}, {"measurement": "OD450 nm", "setting": "[5]", "result": 1.71, "unit": "OD450"}, {"measurement": "OD450 nm", "setting": "[6]", "result": 0.25, "unit": "OD450"}, {"measurement": "EC50", "setting": "[7]", "result": 0.36, "unit": "nM"}, {"measurement": "Max MFI", "setting": "[7]", "result": 2190, "unit": "MFI"}, {"measurement": "EC50", "setting": "[8]", "result": 0.68, "unit": "nM"}, {"measurement": "Max MFI", "setting": "[8]", "result": 10700, "unit": "MFI"}, {"measurement": "OD450 nm", "setting": "[9]", "result": 0.08, "unit": "OD450"}]}, {"binder": "hAb006LH3L1c (antibody, human IgG1, V domains shown, Humanized F3.38.7) VH: EVQLVQSGAEVKKPGSSVKVSCKASGYTFTDYEIHWVRQAPGQGLEWMGAIDPKTGNTAYNQKFMGRVTLTADKSTSTAYMELSSLRSEDTAVYYCTRYFSFAYWGQGTLVTVSS VL: DIVMTQTPLSLPVTPGEPASISCRSSQTFVHSNRNTYLQWYLQKPGQSPQLLIYKVSNRFSGVPDRFSGSGSGTDFTLKISRVEAEDVGVYYCFQGSHVPYTFGQGTKLEIK", "values": [{"measurement": "Kd", "setting": "[10]", "result": 3.15, "unit": "nM"}, {"measurement": "koff", "setting": "[10]", "result": 0.001, "unit": "s⁻¹"}, {"measurement": "kon", "setting": "[10]", "result": 319000, "unit": "M⁻¹ s⁻¹"}, {"measurement": "EC50", "setting": "[11]", "result": 4.06, "unit": "nM"}, {"measurement": "Max MFI", "setting": "[11]", "result": 91600, "unit": "MFI"}]}, {"binder": "hAb007LH1L1b (antibody, human IgG1, V domains shown, Humanized F3.81.19) VH: EVQLVQSGAEVKKPGSSVKVSCKASGYTFSDYEMHWVRQAPGQGLEWMGTIDPETGNTAYNQKFKGRVTITADKSTSTAYMELSSLRSEDTAVYYCTRPYSLTYWGQGTLVTVSS VL: DIVMTQTPLSLPVTPGEPASISCRSSQSFVHSNRDTYLQWYLQKPGQSPQLLIYKVSNRFSGVPDRFSGSGSGTDFTLKISRVEAEDVGVYYCFQGSHVPYTFGQGTKLEIK", "values": [{"measurement": "Kd", "setting": "[10]", "result": 2.21, "unit": "nM"}, {"measurement": "koff", "setting": "[10]", "result": 0.000228, "unit": "s⁻¹"}, {"measurement": "kon", "setting": "[10]", "result": 103000, "unit": "M⁻¹ s⁻¹"}, {"measurement": "EC50", "setting": "[11]", "result": 12.4, "unit": "nM"}, {"measurement": "Max MFI", "setting": "[11]", "result": 35400, "unit": "MFI"}]}, {"binder": "hAb007LH1L1 (antibody, human IgG1, V domains shown, Humanized F3.81.19) VH: EVQLVQSGAEVKKPGSSVKVSCKASGYTFSDYEMHWVRQAPGQGLEWMGTIDPETGNTAYNQKFKGRVTITADKSTSTAYMELSSLRSEDTAVYYCTRPYSLTYWGQGTLVTVSS VL: DIVMTQTPLSLPVTPGEPASISCRSSQSFVHSNGDTYLQWYLQKPGQSPQLLIYKVSNRFSGVPDRFSGSGSGTDFTLKISRVEAEDVGVYYCFQGSHVPYTFGQGTKLEIK", "values": [{"measurement": "Kd", "setting": "[10]", "result": 1.05, "unit": "nM"}, {"measurement": "koff", "setting": "[10]", "result": 0.000114, "unit": "s⁻¹"}, {"measurement": "kon", "setting": "[10]", "result": 109000, "unit": "M⁻¹ s⁻¹"}, {"measurement": "EC50", "setting": "[11]", "result": 4.1, "unit": "nM"}, {"measurement": "Max MFI", "setting": "[11]", "result": 36300, "unit": "MFI"}]}, {"binder": "hAb007LH2L1b (antibody, human IgG1, V domains shown, Humanized F3.81.19) VH: EVQLVQSGAEVKKPGSSVKVSCKASGYTFTDYEMHWVRQAPGQGLEWMGTIDPETGNTAYNQKFKGRVTITADKSTSTAYMELSSLRSEDTAVYYCTRPYSLTYWGQGTLVTVSS VL: DIVMTQTPLSLPVTPGEPASISCRSSQSFVHSNRDTYLQWYLQKPGQSPQLLIYKVSNRFSGVPDRFSGSGSGTDFTLKISRVEAEDVGVYYCFQGSHVPYTFGQGTKLEIK", "values": [{"measurement": "Kd", "setting": "[10]", "result": 3.58, "unit": "nM"}, {"measurement": "koff", "setting": "[10]", "result": 0.000315, "unit": "s⁻¹"}, {"measurement": "kon", "setting": "[10]", "result": 88000, "unit": "M⁻¹ s⁻¹"}, {"measurement": "EC50", "setting": "[11]", "result": 13.2, "unit": "nM"}, {"measurement": "Max MFI", "setting": "[11]", "result": 35800, "unit": "MFI"}]}, {"binder": "hAb007LH1L1c (antibody, human IgG1, V domains shown, Humanized F3.81.19) VH: EVQLVQSGAEVKKPGSSVKVSCKASGYTFSDYEMHWVRQAPGQGLEWMGTIDPETGNTAYNQKFKGRVTITADKSTSTAYMELSSLRSEDTAVYYCTRPYSLTYWGQGTLVTVSS VL: DIVMTQTPLSLPVTPGEPASISCRSSQSFVHSNADTYLQWYLQKPGQSPQLLIYKVSNRFSGVPDRFSGSGSGTDFTLKISRVEAEDVGVYYCFQGSHVPYTFGQGTKLEIK", "values": [{"measurement": "Kd", "setting": "[10]", "result": 4.28, "unit": "nM"}, {"measurement": "koff", "setting": "[10]", "result": 0.000397, "unit": "s⁻¹"}, {"measurement": "kon", "setting": "[10]", "result": 92700, "unit": "M⁻¹ s⁻¹"}, {"measurement": "EC50", "setting": "[11]", "result": 8.8, "unit": "nM"}, {"measurement": "Max MFI", "setting": "[11]", "result": 73600, "unit": "MFI"}]}]}
